We go through one molecule from article PMC10491607 (Cell Discovery, 2023).

In the experiment the target is T1, Angiotensin-converting enzyme 2 (ACE2) (UniProt Q9BYF1 18-805, glycosylation moieties seen in the map).
T1 construct: source: co-transfected in HEK-293T cells for the current recordings
The experiment is described as follows: cryo-EM structure; ACE2-SIT1 complex bound to Pro, 3.3 Å overall (transmembrane domain 3.7 Å local). Particulars: both partners purified.

T1 sequence (Q9BYF1 18-805): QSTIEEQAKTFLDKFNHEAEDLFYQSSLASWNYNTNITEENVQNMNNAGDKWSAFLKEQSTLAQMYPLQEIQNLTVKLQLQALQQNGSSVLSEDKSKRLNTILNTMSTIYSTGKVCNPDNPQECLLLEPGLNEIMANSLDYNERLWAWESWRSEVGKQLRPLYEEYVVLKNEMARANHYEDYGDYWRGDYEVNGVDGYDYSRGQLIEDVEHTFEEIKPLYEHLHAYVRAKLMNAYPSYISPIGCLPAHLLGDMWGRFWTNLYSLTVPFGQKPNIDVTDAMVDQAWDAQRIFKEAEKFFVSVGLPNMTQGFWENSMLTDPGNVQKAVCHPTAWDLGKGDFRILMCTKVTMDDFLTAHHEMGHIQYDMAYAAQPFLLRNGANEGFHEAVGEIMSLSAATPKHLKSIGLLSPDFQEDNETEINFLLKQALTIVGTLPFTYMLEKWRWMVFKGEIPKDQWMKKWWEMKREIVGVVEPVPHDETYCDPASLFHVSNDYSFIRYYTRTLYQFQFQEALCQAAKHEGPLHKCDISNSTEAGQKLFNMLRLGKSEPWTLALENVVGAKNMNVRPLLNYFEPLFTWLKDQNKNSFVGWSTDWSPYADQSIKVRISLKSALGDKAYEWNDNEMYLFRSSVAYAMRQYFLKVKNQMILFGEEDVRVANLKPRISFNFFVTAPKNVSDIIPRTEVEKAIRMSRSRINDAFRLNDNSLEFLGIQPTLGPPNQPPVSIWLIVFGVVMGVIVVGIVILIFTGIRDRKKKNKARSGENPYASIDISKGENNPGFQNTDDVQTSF

B1: SIT1 (SLC6A20) (natural protein)
chain: MEKARPLWANSLQFVFACISYAVGLGNVWRFPYLCQMYGGGSFLVPYIIMLIVEGMPLLYLELAVGQRMRQGSIGAWRTISPYLSGVGVASVVVSFFLSMYYNVINAWAFWYLFHSFQDPLPWSVCPLNGNHTGYDEECEKASSTQYFWYRKTLNISPSLQENGGVQWEPALCLLLAWLVVYLCILRGTESTGKVVYFTASLPYCVLIIYLIRGLTLHGATNGLMYMFTPKIEQLANPKAWINAATQIFFSLGLGFGSLIAFASYNEPSNNCQKHAIIVSLINSFTSIFASIVTFSIYGFKATFNYENCLKKVSLLLTNTFDLEDGFLTASNLEQVKGYLASAYPSKYSEMFPQIKNCSLESELDTAVQGTGLAFIVYTEAIKNMEVSQLWSVLYFFMLLMLGIGSMLGNTAAILTPLTDSKIISSHLPKEAISGLVCLVNCAIGMVFTMEAGNYWFDIFNDYAATLSLLLIVLVETIAVCYVYGLRRFESDLKAMTGRAVSWYWKVMWAGVSPLLIVSLFVFYLSDYILTGTLKYQAWDASQGQLVTKDYPAYALAVIGLLVASSTMCIPLAALGTFVQRRLKRGDADPVA
notes: also called WT; source: co-transfected in HEK-293T cells for the current recordings
Take B1: the binding result is “binds”.
